Reference: the supplement of paper PMC10126150
± gives the standard deviation of the averaged measurements.

Test system: ATP
Experiment: switch fluorescence ratio, 500 uM ATP over buffer (Cy3 cluster intensity, sum of 5 cycles each) (fold (ratio)); higher = stronger signal-on switching upon ATP binding; sequences stand for … in TCGTCGGCAGCGTCAGATGTGTATAAGAGACAGTTTTTTTTTTTTTTTTTTTTTTTTT…TC
Conditions: aptamer strand: ATP DNA aptamer (quencher-CACCTGGGGGAGTATTGCGGAGGAAGG + anchor), 100 nM annealed; ATP concentration: 500 uM
Procedure, shortened: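 Values give the fluorescence ratio for each switch-domain sequence, averaged from per-cluster ratios of summed target-cycle to summed buffer-cycle Cy3 intensity. The Cy3-labelled switching-strand clusters sat on a modified Illumina MiSeq flow-cell, were annealed to 100 nM quencher-labelled ATP aptamer, and were imaged in selection buffer, then after 15 min with 500 uM ATP at 22 °C. Five cycles ran with NaOH stripping and re-annealing between them, and clusters outside 100-1000 RFU were excluded.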
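Also: ATP exposure 15 min at 22 °C before imaging.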

GCGAAAGGGA
switch fluorescence ratio: 1.02 ± 0.036

TTGTTAATAG
switch fluorescence ratio: 1.06 ± 0.062

TTTTGGGCCT
switch fluorescence ratio: 1.042 ± 0.0088

AAAGTAGAGG
switch fluorescence ratio: 0.969 ± 0.029

GCTGCTTGGG
switch fluorescence ratio: 1.01 ± 0.019

TCTTTTGGCG
switch fluorescence ratio: 0.927 ± 0.059

TCCGACGTAG
switch fluorescence ratio: 1.19 ± 0.31

TTTCACACGT
switch fluorescence ratio: 1.02 ± 0.024

AGGTGATACG
switch fluorescence ratio: 1.06 ± 0.054

TAGTTTTTAA
switch fluorescence ratio: 1.01 ± 0.008

GGAATTATCG
switch fluorescence ratio: 0.98808 ± 0.00049

TTTTATACGT
switch fluorescence ratio: 1.01 ± 0.016

GCTGCTGGGC
switch fluorescence ratio: 0.968 ± 0.036

AGTGGCATAG
switch fluorescence ratio: 0.996 ± 0.022

GGCCGAAGGG
switch fluorescence ratio: 1.03 ± 0.066

TGGTTAGGGG
switch fluorescence ratio: 1.06 ± 0.084

GTTGTTGCAA
switch fluorescence ratio: 1.13 ± 0.21

AGGGTCGCCT
switch fluorescence ratio: 1 ± 0.04

AGTGCAGAGA
switch fluorescence ratio: 0.989 ± 0.028

GGAAAATAAT
switch fluorescence ratio: 1.01 ± 0.035

GAGGAGAATT
switch fluorescence ratio: 0.983 ± 0.018

GGGGGGGCGT
switch fluorescence ratio: 0.996 ± 0.032

GGGGTGAGCA
switch fluorescence ratio: 0.976 ± 0.029

TTTTATAGGG
switch fluorescence ratio: 0.948 ± 0.027

TGTCGTCTGT
switch fluorescence ratio: 0.9932 ± 0.0063

AATAATAGCC
switch fluorescence ratio: 1.01 ± 0.042

TAGGCTCGGG
switch fluorescence ratio: 0.99 ± 0.038

GGGGACACGG
switch fluorescence ratio: 1.03 ± 0.016

TTTTGGGTTC
switch fluorescence ratio: 1.03 ± 0.07

TGGCGCATTC
switch fluorescence ratio: 1.3 ± 0.15

TATCTATATT
switch fluorescence ratio: 1 ± 0.016

AGAACGGCGG
switch fluorescence ratio: 0.972 ± 0.085

GAATGTAGTT
switch fluorescence ratio: 1.01 ± 0.017

AGGGCTTAGT
switch fluorescence ratio: 0.995 ± 0.022

TGCTGAAAAC
switch fluorescence ratio: 0.974 ± 0.028

GCGACACACT
switch fluorescence ratio: 1.47 ± 0.058

TTGCATCGGG
switch fluorescence ratio: 0.9891 ± 0.0034

CTGGGAAGAG
switch fluorescence ratio: 1.01 ± 0.028

AGGTTACTCC
switch fluorescence ratio: 1.07 ± 0.032

TCATTGTGAG
switch fluorescence ratio: 1 ± 0.038

AAGGTCATAA
switch fluorescence ratio: 1.01 ± 0.053

TTGAGGCGGG
switch fluorescence ratio: 0.993 ± 0.045

CGGTAGTCGG
switch fluorescence ratio: 1.03 ± 0.027

CCTGAAGGCA
switch fluorescence ratio: 1 ± 0.011

GGGGAGAGAC
switch fluorescence ratio: 1.04 ± 0.041

TATATAGAGC
switch fluorescence ratio: 1.02 ± 0.011

ACGAAATCGG
switch fluorescence ratio: 1.03 ± 0.018

GTTGGGGAGG
switch fluorescence ratio: 1.01 ± 0.035

ATTATGTTGT
switch fluorescence ratio: 0.981 ± 0.028

GACTTGAATG
switch fluorescence ratio: 0.976 ± 0.011

ATACGGGGTA
switch fluorescence ratio: 1.03 ± 0.054

GGGAAACAAA
switch fluorescence ratio: 0.96 ± 0.059

GTCAAAAATT
switch fluorescence ratio: 0.987 ± 0.01

CTGTGTTCTT
switch fluorescence ratio: 0.9864 ± 0.0065

GTGGGGATGT
switch fluorescence ratio: 1.01 ± 0.024

AATTATTGGT
switch fluorescence ratio: 1.01 ± 0.026

GCATAACATT
switch fluorescence ratio: 1.01 ± 0.014

AAATGTTAAG
switch fluorescence ratio: 1.01 ± 0.032

GGTAGGGGTA
switch fluorescence ratio: 1.03 ± 0.084

GCTGGTTCTG
switch fluorescence ratio: 0.982 ± 0.054

AATTGATTGT
switch fluorescence ratio: 0.993 ± 0.051

CCTAGGGGGA
switch fluorescence ratio: 1.05 ± 0.021

ATACGAGAAT
switch fluorescence ratio: 1 ± 0.023

CGTGCCCAGC
switch fluorescence ratio: 1.01 ± 0.025

TCGATCTGTG
switch fluorescence ratio: 0.99652 ± 0.00045

TGCATCGGGG
switch fluorescence ratio: 0.983 ± 0.032

GGGATCATTA
switch fluorescence ratio: 0.983 ± 0.02

CGTTGGGCTC
switch fluorescence ratio: 1.019 ± 0.0051

GCCTCCAGTT
switch fluorescence ratio: 1.15 ± 0.025

GTAACGGGGA
switch fluorescence ratio: 0.995 ± 0.072

ATATGTGGGC
switch fluorescence ratio: 0.9577 ± 0.0068

ATTGTCGTTC
switch fluorescence ratio: 1.027 ± 0.0098

AAAGCTGTTT
switch fluorescence ratio: 1.02 ± 0.014

CTGGGGAGGT
switch fluorescence ratio: 0.9946 ± 0.0044

CAGGGGTAGG
switch fluorescence ratio: 1.09 ± 0.044

CCAGTAGAGC
switch fluorescence ratio: 1.01 ± 0.034

CAGTGGTTGG
switch fluorescence ratio: 1.01 ± 0.013

AGTTTTCCCT
switch fluorescence ratio: 1.01 ± 0.015

GAAGTAGAGG
switch fluorescence ratio: 1 ± 0.032

CCTCGTTAGC
switch fluorescence ratio: 2.63 ± 0.13

TTTTGTTTGC
switch fluorescence ratio: 1.02 ± 0.03

CTGTGAGGGC
switch fluorescence ratio: 0.991 ± 0.037

GGGTACGGTG
switch fluorescence ratio: 1.07 ± 0.022

GAATAAGGGA
switch fluorescence ratio: 1 ± 0.014

ATCAGTGATG
switch fluorescence ratio: 1 ± 0.046

TAGTGTATTC
switch fluorescence ratio: 0.989 ± 0.026

TTGGATTGGG
switch fluorescence ratio: 1.02 ± 0.064

GAAGGGGGAT
switch fluorescence ratio: 1.02 ± 0.051

TGCATGTATT
switch fluorescence ratio: 1.012 ± 0.0039

GAAGGGGGTA
switch fluorescence ratio: 0.996 ± 0.028

TGCTATCATC
switch fluorescence ratio: 0.989 ± 0.02

TCGTTGGGGG
switch fluorescence ratio: 0.995 ± 0.013

CTTAAAGGCC
switch fluorescence ratio: 0.984 ± 0.026

ACATTTCAAA
switch fluorescence ratio: 0.987 ± 0.0069

GGCGTAGGAG
switch fluorescence ratio: 0.997 ± 0.021

GGGCAATGCT
switch fluorescence ratio: 3.33 ± 3.1

TCATGCGTAA
switch fluorescence ratio: 2.03 ± 0.069

TTTGCCTT
switch fluorescence ratio: 1.06 ± 0.051

GGCCCCTTAG
switch fluorescence ratio: 1.02 ± 0.03

TGGGAAGAGC
switch fluorescence ratio: 1.025 ± 0.0038

AAGTCGGGGG
switch fluorescence ratio: 1 ± 0.029

TTTTAGGCTT
switch fluorescence ratio: 1.01 ± 0.026

CGGTGTATTT
switch fluorescence ratio: 0.9547 ± 0.0037

ATAAAGTGTG
switch fluorescence ratio: 1.01 ± 0.02

TTATCTCACT
switch fluorescence ratio: 1.06 ± 0.014

GATCGGGGGC
switch fluorescence ratio: 1.06 ± 0.14

ATTTATGTTA
switch fluorescence ratio: 0.985 ± 0.012

GTTCGAGGGC
switch fluorescence ratio: 1.046 ± 0.002

TTGTTATGTG
switch fluorescence ratio: 0.955 ± 0.024

ATGATATTGA
switch fluorescence ratio: 0.99 ± 0.011

CTCGGGTGGG
switch fluorescence ratio: 0.985 ± 0.037

AGTATATGGG
switch fluorescence ratio: 0.988 ± 0.023

ATTCACGGCC
switch fluorescence ratio: 1.06 ± 0.043

TTGGTTTTTT
switch fluorescence ratio: 1 ± 0.034

AAAATATAGA
switch fluorescence ratio: 0.9798 ± 0.0025

GCCAGTAATA
switch fluorescence ratio: 1.1 ± 0.034

GAATAATGAT
switch fluorescence ratio: 0.989 ± 0.028

GGTATGTAGG
switch fluorescence ratio: 0.978 ± 0.012

CTGGTCCAGG
switch fluorescence ratio: 1.12 ± 0.034

GGAATTTGGC
switch fluorescence ratio: 1.02 ± 0.052

GACGGGGCGG
switch fluorescence ratio: 0.994 ± 0.031

CGTACGCCGG
switch fluorescence ratio: 0.993 ± 0.021

AGGCATTGGG
switch fluorescence ratio: 1.0154 ± 0.00096

AAGGGGGTAA
switch fluorescence ratio: 0.977 ± 0.012

CGTCAGAGCG
switch fluorescence ratio: 0.9802 ± 0.008

TGGGGACCCA
switch fluorescence ratio: 0.991 ± 0.018

TATAAGAGCC
switch fluorescence ratio: 0.984 ± 0.043

TGATGAATTG
switch fluorescence ratio: 1.04 ± 0.002

TTTGGATGAA
switch fluorescence ratio: 1.05 ± 0.013

CATTCTGATC
switch fluorescence ratio: 1 ± 0.056

AGTTTGGCGT
switch fluorescence ratio: 1.01 ± 0.041

TCCTGATTGA
switch fluorescence ratio: 0.984 ± 0.063

GGAGCGGGGA
switch fluorescence ratio: 1 ± 0.084

GTAATGCTTA
switch fluorescence ratio: 1.011 ± 0.005

TAAGGCGAAC
switch fluorescence ratio: 1.03 ± 0.015

AGAGCAGCTG
switch fluorescence ratio: 0.998 ± 0.041

TCGCTATTTA
switch fluorescence ratio: 1.033 ± 0.0085

ACTCGGTCTG
switch fluorescence ratio: 1.02 ± 0.027

TCCGCTTTTT
switch fluorescence ratio: 1.1 ± 0.15

GGGAAAAAAG
switch fluorescence ratio: 0.994 ± 0.026

GCCTTTCTGA
switch fluorescence ratio: 0.9855 ± 0.0061

TGAAATGGTT
switch fluorescence ratio: 1.01 ± 0.017

GTGTCAGGGG
switch fluorescence ratio: 1.04 ± 0.07

ATGGGGTTCT
switch fluorescence ratio: 0.992 ± 0.022

GGGTTAAAAC
switch fluorescence ratio: 1.01 ± 0.043

ATGTTAGGAA
switch fluorescence ratio: 1 ± 0.0065

TTTTCAAGGA
switch fluorescence ratio: 0.993 ± 0.07

AATAGGGAGC
switch fluorescence ratio: 0.997 ± 0.041

GGTCCTGGCT
switch fluorescence ratio: 1.015 ± 0.01

GGCAGGGATT
switch fluorescence ratio: 1.01 ± 0.014

TTATGGGTTT
switch fluorescence ratio: 1 ± 0.036

TTGCTGGTCA
switch fluorescence ratio: 0.9897 ± 0.0042

CTTGGTTTAG
switch fluorescence ratio: 1.01 ± 0.035

GGACTATTTG
switch fluorescence ratio: 1.003 ± 0.0011

CCGTGCACGG
switch fluorescence ratio: 0.978 ± 0.021

GGGTACGGTA
switch fluorescence ratio: 1.05 ± 0.029

GTTGGAGTGC
switch fluorescence ratio: 0.9817 ± 0.0017

CAGGTTTGG
switch fluorescence ratio: 0.982 ± 0.014

GGGAAAAATA
switch fluorescence ratio: 1.24 ± 0.51

CGCCGGGTTG
switch fluorescence ratio: 0.984 ± 0.033

TAGGGTAGCG
switch fluorescence ratio: 0.99 ± 0.012

GATGAAATGG
switch fluorescence ratio: 1.02 ± 0.013

GGGCTGAGGG
switch fluorescence ratio: 0.988 ± 0.029

TTGGTGACGT
switch fluorescence ratio: 1.03 ± 0.022

ATATTAGAGG
switch fluorescence ratio: 0.998 ± 0.037

GGATATGGGT
switch fluorescence ratio: 0.966 ± 0.011

GGAGAAATCT
switch fluorescence ratio: 1.12 ± 0.022

GATTATGCTC
switch fluorescence ratio: 1.01 ± 0.015

ACCTGCTTTT
switch fluorescence ratio: 1.05 ± 0.051

TAAAAAAAAG
switch fluorescence ratio: 1.01 ± 0.039

AATCTCATAA
switch fluorescence ratio: 0.986 ± 0.034

TTCTGTTTCC
switch fluorescence ratio: 1.12 ± 0.13

AAGGTATGGG
switch fluorescence ratio: 1.06 ± 0.073

GGATGTAGGG
switch fluorescence ratio: 0.999 ± 0.029

AGACAGGGCC
switch fluorescence ratio: 0.988 ± 0.01

AGAAAGGGCG
switch fluorescence ratio: 0.94 ± 0.037

TTTAATTCAT
switch fluorescence ratio: 1.008 ± 0.0088

GGCTTTTACG
switch fluorescence ratio: 1.03 ± 0.042

GCGGTAGACG
switch fluorescence ratio: 1.01 ± 0.021

ACGGGTGCGT
switch fluorescence ratio: 1.017 ± 0.0027

GGTTGTTTTT
switch fluorescence ratio: 1.01 ± 0.032

AAAAATACGG
switch fluorescence ratio: 0.965 ± 0.057

ATGTCCTTAT
switch fluorescence ratio: 0.988 ± 0.029

GCAAGACAAG
switch fluorescence ratio: 1.05 ± 0.036

CCTACATGTG
switch fluorescence ratio: 1.26 ± 0.11

GGGGGGATGT
switch fluorescence ratio: 0.993 ± 0.027

GGGGCTTTTG
switch fluorescence ratio: 0.98 ± 0.04

AGTTTGGGAG
switch fluorescence ratio: 0.992 ± 0.021

GCATATCTGT
switch fluorescence ratio: 1.0296 ± 0.00023

AGACGAAAAG
switch fluorescence ratio: 1.03 ± 0.038

TCGGATAGTC
switch fluorescence ratio: 1.01 ± 0.026

GGGAAAGATG
switch fluorescence ratio: 0.986 ± 0.042

TTTTTGGGTA
switch fluorescence ratio: 0.973 ± 0.027

CAATCATAGT
switch fluorescence ratio: 0.989 ± 0.028

GTTGAAGTTG
switch fluorescence ratio: 0.968 ± 0.02

TTAGTATCGG
switch fluorescence ratio: 0.999 ± 0.052

AAAGGGCATG
switch fluorescence ratio: 1 ± 0.011

GACGACGTGC
switch fluorescence ratio: 2.33 ± 0.44

TGGATTTCGG
switch fluorescence ratio: 1.016 ± 0.0065

AGGTTTTATA
switch fluorescence ratio: 0.9919 ± 0.0094
